{
  "source": "paper PMC2885444",
  "about": "(The Biochemical journal, 2009)",
  "biological_target": "CHD4 PHD2 finger, wild type (UniProt Q14839 446-501)",
  "test": "other fluorescence titration + NMR titration",
  "data": [
    {"binder": "ARTKQTARKSTG (trimethyl-lysine at 4)", "note": "[H3K4me3 peptide (12-mer histone tail peptide)]", "values": [
      {"measurement": "Kd", "value": 2000, "unit": "µM"}
    ]}
  ]
}
